Assays:
[1] = target: LRP1 Cluster IV (commercial) (Homo sapiens); assay: SPR
[2] = target: T1, vLDLR CR cluster (8 CRs), recombinant, secreted from Sf9 cells (human, UniProt P98155 28-355); assay: SPR; vLDLR cluster expressed without RAP (RAP-)
LRP1 CR.7 singlet [3] = target: T2, LRP1 CR.7 singlet (human, UniProt Q07954 1013-1053); assay: SPR; CR.7 expressed with RAP (RAP+)
[4] = target: T1, vLDLR CR cluster (8 CRs), recombinant, …; assay: SPR; vLDLR cluster expressed with RAP (RAP+)
LRP1 CR.7 singlet [5] = target: T2, LRP1 CR.7 singlet; assay: SPR; CR.7 expressed without RAP (RAP-)

T2 sequence (Q07954 1013-1053): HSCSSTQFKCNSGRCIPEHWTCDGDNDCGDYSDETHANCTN
Sequence of LRP1 Cluster IV (commercial) (Homo sapiens) (chain, as listed by the source): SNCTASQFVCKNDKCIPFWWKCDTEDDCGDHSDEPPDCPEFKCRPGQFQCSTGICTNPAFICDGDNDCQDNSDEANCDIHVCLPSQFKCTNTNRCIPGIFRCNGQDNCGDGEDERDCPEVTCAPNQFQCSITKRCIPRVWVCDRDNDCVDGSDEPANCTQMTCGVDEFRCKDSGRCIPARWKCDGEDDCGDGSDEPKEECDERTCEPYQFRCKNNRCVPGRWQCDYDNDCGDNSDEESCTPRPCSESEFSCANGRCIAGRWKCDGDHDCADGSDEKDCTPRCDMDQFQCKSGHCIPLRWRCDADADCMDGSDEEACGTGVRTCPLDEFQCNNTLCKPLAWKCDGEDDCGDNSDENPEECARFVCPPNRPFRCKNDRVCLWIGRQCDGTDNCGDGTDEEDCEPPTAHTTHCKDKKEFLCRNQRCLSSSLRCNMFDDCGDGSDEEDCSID

B1: RAP (commercial; R&D, 4296-LR) (natural protein)
chain: YSREKNQPKPSPKRESGEEFRMEKLNQLWEKAQRLHLPPVRLAELHADLKIQERDELAWKKLKLDGLDEDGEKEARLIRNLNVILAKYGLDGKKDARQVTSNSLSGTQEDGLDDPRLEKLWHKAKTSGKFSGEELDKLWREFLHHKEKVHEYNVLLETLSRTEEIHENVISPSDLSDIKGSVLHSRHTELKEKLRSINQGLDRLRRVSHQGYSTEAEFEEPRVIDLWDLAQSANLTDKELEAFREELKHFEAKIEKHNHYQKQLEIAHEKLRHAESVGDGERVSRSREKHALLEGRTKELGYTVKKHLQDLSGRISRARHNEL
modifications: Limits by convention: cluster IV = CR.21-31 (LDL-receptor class A repeats 21-31); vendor limits are not printed. Likely supplied as an Fc chimera, as for commercial cluster II (Fc omitted; may be a dimer). Ca2+-bound, three disulfides per CR.
For B1, which Kd [1] is on record?
Its Kd is roughly 2.5 nM.

B2: RAP (commercial; R&D, 4296-LR) (natural protein)
chain: YSREKNQPKPSPKRESGEEFRMEKLNQLWEKAQRLHLPPVRLAELHADLKIQERDELAWKKLKLDGLDEDGEKEARLIRNLNVILAKYGLDGKKDARQVTSNSLSGTQEDGLDDPRLEKLWHKAKTSGKFSGEELDKLWREFLHHKEKVHEYNVLLETLSRTEEIHENVISPSDLSDIKGSVLHSRHTELKEKLRSINQGLDRLRRVSHQGYSTEAEFEEPRVIDLWDLAQSANLTDKELEAFREELKHFEAKIEKHNHYQKQLEIAHEKLRHAESVGDGERVSRSREKHALLEGRTKELGYTVKKHLQDLSGRISRARHNEL
Which results are given for B2?
Kd [2]: ~1.7 nM; Kd (LRP1 CR.7 singlet [3]): 37.6 nM; Kd [4]: ~1.6 nM; Kd (LRP1 CR.7 singlet [5]): 67.9 nM
